The record followed here is paper PMC12520357 (2025).

First the molecules themselves.
T1: 14-3-3 proteins, P29311
T1 chain: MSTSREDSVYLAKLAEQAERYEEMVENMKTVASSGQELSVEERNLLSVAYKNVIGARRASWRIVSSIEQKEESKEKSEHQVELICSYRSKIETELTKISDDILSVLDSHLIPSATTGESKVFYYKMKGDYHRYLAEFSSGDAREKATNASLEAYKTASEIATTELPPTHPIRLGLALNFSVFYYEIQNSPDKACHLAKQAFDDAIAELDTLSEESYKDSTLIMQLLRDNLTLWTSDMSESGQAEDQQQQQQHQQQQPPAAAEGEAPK

B1: Reg1-FLAG (wild type), Q00816 P278Q (protein)
chain: MSTNLANYFAGKKDIENEHVNRNASHESNSKSDVKISGNDNDNDEDMGPSVSMAVQAKNDDDFHKSTFNLKRTRSMGLLDEYIDPTKKLLGRSDDLYDNDNEYYDNSSNNSSSNSSDDDYDDGYQEHSTSVSPPPADNDSYLIPQDDNDVVVEPERHVDYLSHEWKESEISNSWKYIILKKKKRDVDLVNAARLENASWRTWAKARNNLKTVSPEVVNWSKDSDVTWLYGPIVRDSEGNAQSEEEHDLERGYGSDDENSKRISMPTKNSKSIAAAPKQILKKRTVTEIIEDNALWKLNEARKHMTEMKHASVIMDPNGNKNVHDDFDALAAQVNAQYYHYPKESNSSVSLKSQHSDKKDNSTIPNPVGENSNGGGDKGEEDLHLKSALHVQNNRSTAQSNKSILENSTNDRKANLDQNLNSPDNNRFPSSTSSSNRDNENNSMGLSSILTSNPSEKSNKPTKNRHIHFNDRVEQCMALRYPASQSEDDESDDENKQYVDVNNNANVTTINNNRTPLLAIQHKSIPINSATEHLNKNTSDDDTSSQSSSSSHSDDEEHGGLYINARFSRRSDSGVHSPITDNSSVASSTTSRAHVRPIIKLLPDTTLNYGSDEESDNGEFNGYGNAVSHNVNTSRGYDYIYDYNSVYTGDTSSFLPVDSCDIVDVPEGMDLQTAIADDNASNYEFNNAVESKEKHVPQLHKASANNTTRQHGSHMLLYDDDNYSSSSDSEQQFIEDSQYNSSDDEEEEDDDDQEVDDNHDEGLSLRRTLSLGKSGSTNSLYDLAQPSLSSATPQQKNPTNFTGGKTDVDKDAQLAVRPYPLKRNSSSGNFIFNSDSEEESSSEEEQRPLPANSQLVNRSVLKGSVTPANISSQKKKALPKQPKASDSSQSFRIVNNTPSPAEVGASDVAIEGYFSPRNESIKSVVSGGNMMDHQDHSEMDTLAKGFENCHINNASKLKDKKVDSVQTTRKEASLTDSSNESLHKVVQNARGMASKYLHSWKKSDVKPQENGNDSS
B2: Reg1-FLAG (wild type), Q00816 P231S (protein)
chain: B1 chain with P231S, Q278P
B3: Reg1-FLAG (wild type), Q00816 W165G (protein)
chain: B1 chain with W165G, Q278P
B4: Reg1-FLAG (wild type), Q00816 N624S (protein)
chain: B1 chain with Q278P, N624S
B5: Reg1-FLAG (wild type), Q00816 A54T (protein)
chain: B1 chain with A54T, Q278P

Numbering of substitutions follows the chain as printed. Names may count otherwise.

The assay addresses T1, 14-3-3 proteins, P29311. Description: co-immunoprecipitation (anti-FLAG IP, immunoblot quantification). Conditions: chain shown with the change; n = 3; reg1Δ Snf1-GFP Glc7-GFP cells; parent: est. 1.0; read off a plot. In general terms: In western blotting, separated proteins are transferred to a membrane and probed.
Regarding B1, the ratio to parent is 1.2.

Turning to B2, the ratio to parent turned out to be 1.2.

Regarding B3, the ratio to parent amounted to 1.1.

As for B4, the ratio to parent worked out at 1.4.

Take B5: the ratio to parent worked out at 1.2.
